Measurements taken from article PMC9359782.

Biological target: Human immunoglobulin G (IgG) (human)
Experiment: LSPR

LLSPR wavelength shift: < 1 nm
Substance: Bovine serum albumin (from UniProt P02769 25-607) (natural protein)
